Series [1] relates to maize HPPD. Nature of the series: ON rate ratio, OFF rate ratio and insensitivity parameter with herbicidal HPPD inhibitors. The class given is biochemical. From the text: To devise a parameter for detecting changes in inhibitor binding affinity, KD, one can utilize the relationship between KD and the rates of binding and release of inhibitor to and from the enzyme. [formula] Higher KD (reduced affinity or increased insensitivity) can be attained with a numerically smaller ON rate, a larger OFF rate or both. […] The ratio of the reaction rate with inhibitor to that without inhibitor during the 70 to 90 second interval of the reaction was termed the “ON rate ratio”. […] Incubations with the same concentrations of enzyme but no mesotrione were done in parallel. After 1 hr at room temperature, 5 to 10 ul of the enzyme-inhibitor complex was dispensed into the wells of the assay plate. Reactions were started with the addition of 290 to 295 ul of 25 mM Hepes, pH 7, 2 mM ascorbate, 10 uM FeSO4, 100 uM HPP and 50 nM HGD. The reactions were monitored at 320 nm for 12 min. Reaction velocity accelerates as inhibitor is released from the enzyme until a steady state is reached, during which the reaction velocity is constant. The ratio of the steady state rate in mixtures containing mesotrione (or other herbicidal inhibitor) to the initial velocity of mixtures lacking inhibitor is termed the “OFF rate ratio”. Another parameter to record is the time span required for the reactions with inhibitor to reach the steady state. […] It is not certain that the steady state attained in the OFF rate reactions actually represents an equilibrium where OFF rates are now equal to ON rates. Because substrate and inhibitors bind in the same site, the high concentration of substrate present may competitively trap the inhibitor and prevent it from binding again. To be sure that improvement in ON rates is being taken into account, the ON and OFF rate ratios were multiplied together and the product is termed the “insensitivity parameter”. […] The variants in Table 9 were grouped according to the parameter in which they are improved compared to wild type. The sequence positions are numbered according to the wild-type maize amino acid sequence of SEQ ID 1. Some substitutions are effective in multiple contexts, as discussed in the next section.

In series [2] the test system is maize HPPD. Nature of the series: KD by isothermal titration calorimetry. The class given is binding. The procedure: To verify that the insensitivity parameter reflects improvement (elevation) in KD, KD was directly measured with isothermal titration calorimetry. […] Enzymes were transferred to a matrix of 25 mM Hepes, pH 7, 2 mM ascorbate and 10 uM FeSO4 by gel-filtration chromatography. Mesotrione or tembotrione were diluted into the same buffer. Enzyme concentrations in the cell ranged from 100 to 300 uM. Inhibitor concentrations in the syringe were always 8 times that of the cell concentration.
On the technique in general: ITC needs no label: the signal is the heat of the interaction.

Another series has as its system soybean plants. Nature of the series: Herbicide spray tests of transgenic HPPD soy plants (T1/T2) with multiple HPPD-inhibitor herbicides, visual injury. The class given is in vivo. The following applies: T1 plants, V1 stage; mesotrione, tembotrione, topramezone, isoxaflutole. The procedure: T1 plants were evaluated for zygosity. Homozygous single-locus transgenic plants and their corresponding null segregants were identified and T2 true breeding seed was obtained from each. Plants were grown to the V1 to V2 growth stage and then sprayed with the commercial formulation of mesotrione, tembotrione, topramezone, and isoxaflutole. All treatments were applied with nonionic surfactant and ammonium sulfate in a spray volume of 374 L/ha. Multiple rates of each herbicide were applied so a response range could be used to compare the relative tolerance of the different herbicides as well as the relative tolerance of homozygous nulls and positives for each event. The herbicide response for individual treated plants was evaluated by comparing to untreated plants of similar genetic background. Herbicide response ratings were eight days after treatment. Visual injury was on a scale of 0 to 100% injury (0=no effect to 100=dead plant).
T1 soybean plants expressing D0223903 (SEQ ID NO: 3) driven by a synthetic promoter (as described in U.S. Pat. No. 6,072,050) were evaluated with qPCR for the presence of the transgene and null and positive segregants selected. Plants were sprayed at the V1 growth stage with the commercial formulations of mesotrione, tembotrione, topramezone, and isoxaflutole. Two rates of each herbicide were applied foliarly with nonionic surfactant and ammonium sulfate in a spray volume of 374 L/ha. The herbicide response for individual plants was determined by comparing to untreated plants of similar genetic background. Visual injury was on a scale of 0 to 100% injury (0=no effect to 100=dead plant).

B1: D0223903: shuffled maize HPPD variant, SEQ ID NO: 3; R341C mutation introduced into HPPD D0193494 (protein)
chain: MGPTPTATAAGAAVAAASAAEQAAFRLVGHRNFVRFNPRSDRFHTLAFHHVELWCADAASAAGRFSFALGAPLAARSDLSTGNSAHASLLLRSGSLSFLFTAPYAHGADAATAALPSFSAAAARRFAADHGLAVRAVALRVADAEDAFRASVAAGARPAFGPVDLGRGFRLAEVELYGDVVLRYVSYPDGAAGEPFLPGFEGVASPGAADYGLSRFDHIVGNVPELAPAAAYFAGFTGFHEFAEFTTEDVGTAESGLNSMALANNSENVLLPLNEPVHGTKRRSQIQTFLDHHGGPGVQHIALASDDVLRTLREMQARSAMGGFEFLPPPPSDYYDGVRRCAGDVLTEAQINECQELGVLVDRDDQGVLLQIFTKPVGDRPTFFLEIIQRIGCMEKDEKGQEYQKGGCGGFGKGNFSQLFKSIEDYEKSLEAKQAAAAATAQGS
modifications: HPPD variant
notes: R341C mutation introduced into HPPD D0193494
B1: the “Insensitivity parameter (ON rate ratio × OFF rate ratio) relative to that of maize wild-type HPPD” value amounted to 12.3 in the series on maize HPPD [1] (Isoxaflutole (diketonitrile)); 3.3 in the series with maize HPPD [1] (Sulcotrione); 12.7 in the series on maize HPPD [1] (Topramezone); 6.0 in the series with maize HPPD [1] (mesotrione); 19.3 in the series with maize HPPD [1] (tembotrione). Besides, the “Triple product (ON rate ratio × OFF rate ratio × kcat), relative to that of maize wild-type HPPD” value worked out at 7.7 with maize HPPD [1] (inhibitor Isoxaflutole (diketonitrile)); 3.7 with maize HPPD [1] (inhibitor Mesotrione); 2.1 with maize HPPD [1] (inhibitor Sulcotrione); 12.1 with maize HPPD [1] (inhibitor Tembotrione); 8.0 in the series on maize HPPD [1] (inhibitor Topramezone). Further, the “Fold vs wt (KD)” value in the series with maize HPPD [2] (Mesotrione, sites modeled: One) was 3.6; in the series on maize HPPD [2] (Mesotrione, sites modeled: Two), 4.9; with maize HPPD [2] (Tembotrione, sites modeled: Two), 7.3. The “soybean tolerance to HPPD-inhibitor herbicides” value with soybean plants is recorded as “increased soybean tolerance”.
